# Experimental data published in the DeepSol protein solubility set.
# Test: soluble on expression in E. coli; label from the status in PepcDB or PDB records
row,Sequence,soluble on expression in E. coli
1,MIRMPLATASLLAIAISLAGCGEGKDKAAAPAPAAAPAAPAAAPAAPAPAPAAAAQTDDAAAKAVVANYANMVSAVFDDAQGAAKKLSTAVDAFLAKPNDETLKAARDAWVAARVPYMQSEVFRFGNTIIDDWEGQVNAWPLDEGLIDYVAKDYQHALGNPGATANIIANTEIQVGEDKVDVKEITSEKLASLNELGGSEANVATGYHAIEFLLWGQDLNGTGPGAGARPASDYLEGAGATGGHNDRRRTYLKAVTDLLVSDLEEMAGNWKAGVADNYRATLEAESGESGLRKMLFGMGSLSLGELAGERMKVALEANSSEDEHDCFSDNTHNSHFYNGKGIRNVYLGEYTRTDGSKVSGPSLSSLVAKVDPATDATLRADLDDTQAKLQAIVDHANKGEHFDQLIGAGNTAGNQVVRDAIAALVKQTGAIEQAAGKLGITDLNPDNADHEF,soluble
2,MSLVKYGVVGAGYFGAELARYMQKNDGAEITLLYDPDNAEAIAEELGAKVASSLDELVSSDEVDCVIVATPNNLHKEPVIKAAQHGKNVFCEKPIALSYQDCREMVDACKENNVTFMAGHIMNFFNGVHHAKELINQGVIGDVLYCHTARNGWEEQQPSVSWKKIREKSGGHLYHHIHELDCVQFLMGGMPETVTMTGGNVAHEGEHFGDEDDMIFVNMEFSNKRFALLEWGSAYRWGEHYVLIQGSKGAIRLDLFNCKGTLKLDGQESYFLIHESQEEDDDRTRIYHSTEMDGAIAYGKPGKRTPLWLSSVIDKEMRYLHEIMQGAPVSEEFAKLLTGEAALEAIATADACTQSMFEDRKVKLSEIVKEGHHHHHH,soluble
3,MHAYLHCLSHSPLVGYVDPAQEVLDEVNGVIASARERIAAFSPELVVLFAPDHYNGFFYDVMPPFCLGVGATAIGDFGSAAGELPVPVELAEACAHAVMKSGIDLAVSYCMQVDHGFAQPLEFLLGGLDKVPVLPVFINGVATPLPGFQRTRMLGEAIGRFTSTLNKRVLFLGSGGLSHQPPVPELAKADAHMRDRLLGSGKDLPASERELRQQRVISAAEKFVEDQRTLHPLNPIWDNQFMTLLEQGRIQELDAVSNEELSAIAGKSTHEIKTWVAAFAAISAFGNWRSEGRYYRPIPEWIAGFGSLSARTEN,not soluble
4,MSLKRMLAEFEKIQAILMAFPHEFSDWAYCIKEARESFLNIIQTIAKHAKVLVCVHTNDTIGYEMLKNLPGVEIAKVDTNDTWARDFGAISIENHGVLECLDFGFNGWGLKYPSNLDNQVNFKLKSLGFLKHPLKTMPYVLEGGSIESDGAGSILTNTQCLLEKNRNPHLNQNGIETMLKKELGAKQVLWYSYGYLKGDDTDSHTDTLARFLDKDTIVYSACEDKNDEHYTALKKMQEELKTFKKLDKTPYKLIPLEIPKAIFDENQQRLPATYVNFLLCNDALIVPTYNDPKDALILETLKQHTPLEVIGVDCNTLIKQHGSLHCVTMQLYEGGSHHHHHH,soluble
5,MSLSAHEIRELFLSFFEKKGHTRVKSAPLVPENDPTLLFVNAGMVPFKNVFLGLEKRPYKRATSCQKCLRVSGKHNDLEQVGYTSRHHTFFEMLGNFSFGDYFKKEAIEYAWEFVTEVLKLPKEKLYVSVYKDDEEAYRIWNEHIGIPSERIWRLGEEDNFWQMGDVGPCGPSSEIYVDRGEEYEGDERYLEIWNLVFMQYNRDENGVLTPLPHPNIDTGMGLERIASVLQGKNSNFEIDIIFPLIQFGEEVSGKKYGEKFETDVALRVIADHLRAITFAISDGVIPSNEGRGYVIRRILRRAMRFGYKLGIENPFLYKGVDLVVDIMKEPYPELELSREFVKGIVKGEEKRFIKTLKAGMEYIQEVIQKALEEGRKTLSGKEVFTAYDTYGFPVDLIDEIAREKGLGIDLEGFQCELEEQRERARKHFKVEAKKVKPVYSHLKELGKTSAFVGAAALEHHHHHH,soluble
6,MGSDKIHHHHHHMATELFTWHTLSDTLSDFKSGLSLAQNSGAESLLVLTCSQNNYPEEELNALFHACPLKLFGGIYPMLTLKGDLIKQGALIIGFKEAVDVTLFAQLNQVTNESCLEELITSTLKEKNNFCGQDDFLMFYDALISNIEGFIDCLFEHLDHGINIAGGGAGNLDFIQRHCIFTNSGVHSDAILLVALPRTLNTSVAHGWETFDEPFLVSEAQGQTVQSLNYQPAYEVYCQTIESATEYTFNNTDFFDIAKNFPLGIKDINNNIIVRDPILAKNNHLQCFGNIPINSMVYLLESNIDSLVASTEKAAIALLSKLNKTTITTTMVFDCISRALFMEDEFEKELNVIAEHCHLGALFGVLSLGEIANSQSGAIRLLNKSIVISSW,not soluble
7,MSLSQHIRKLDSDVSERLKSQACTVSLASAVREIVQNSVDAHATTIDVMIDLPNLSFAVYDDGIGLTRSDLNILATQNYTSKIRKMNDLVTMKTYGYRGDALYSISNVSNLFVCSKKKDYNSAWMRKFPSKSVMLSENTILPIDPFWKICPWSRTKSGTVVIVEDMLYNLPVRRRILKEEPPFKTFNTIKADMLQILVMHPMISLNVQYTDKLRINTEVLFRSKNITEGLTKHQQMSQVLRNVFGAIIPPDMLKKVSLKFNEYQIEGIISKMPVGLKDLQFIYINGRRYADSAFQGYVDSLFQAQDFGEKGMSLLKTKSVGKPYRSHPVFILDVRCPQTIDDLLQDPAKKIVKPSHIRTIEPLIVKTIRSFLTFQGYLTEGHHHHHH,not soluble
8,MHGKLIGVGVGPGDSELLTLRAVNVLRSVPVICAPRSSSERESIALSIVEDILTERRDGCRILDPVFPMTDDRDELESHWDSAARMVAAELEDGRDVAFITLGDPSIYSTFSYLQQRIEDMGFKTEMVPGVTSFTACAATAGRTLVEGDEILLVVPRVDDRFERVLRDVDACVIMKTSRHGRRAMEVVESDPRGKDVVSVANCSMDDEVVERGFASGGGYLATTLVRFREQS,soluble
9,MQEKTMKQMQQEVDDYISQFKEGYFSPLAMLARLTEELGELAREVNHYYGEKSKKATEQEKTVEEELGDLLFVLICFANSLGIDLQAAHDRVMDKFRTRDRDRWTRKEEGS,not soluble
10,MNQSDVLSNSMKQATINNEAHVIIDDIDTAHKELDILQQEVDKVIFGQNHVIEYALTSILAGGHALLVGVPGLAKTRLVETLGIVLGLDEKRIQFTPDLMPSDIIGSEIMDSDKSGKRSFRYLQGPIFTQLLMADEINRASPRTQSALLQAMQEYHVTVAGTRYDLPQPFHVLATQNPLEQEGTYPLPEAQLDRFLMQIDIDYPDLTTERRIILDTTGGKNQNAKPVLSAKTLQKIQKIVRKMPISENVVEAILKLVRSARPHKENSLANTYVAWGPGPRASQALSLCARARALYHGRLSPSLDDIATLACPVLQHRMALNFSARAENITIKDIIDNLVKDAL,not soluble
11,MVKVGYIQMEPKILELDKNYSKAEKLIKEASKEGAKLVVLPELFDTGYNFESREEVFDVAQQIPEGETTTFLMELARELGLYIVAGTAEKSGNYLYNSAVVVGPRGYIGKYRKIHLFYREKVFFEPGDLGFKVFDIGFAKVGVMICFDWFFPESARTLALKGAEIIAHPANLVMPYAPRAMPIRALENRVYTITADRVGEERGLKFIGKSLIASPKAEVLSIASETEEEIGVVEIDLNLARNKRLNDMNDIFKDRREEYYFR,soluble
12,MSLIVTLPEPTGPYEIGVTNFHWVDPDREEVEGVNGNRELMVRIWYPAELTEGGLKAPYAFDPSYTELVSKELPYYYKALLYSVIQTETHSFANVPVADHGAPYPVLILSPGYGNSNFMYTSQAETLASHGYIVCSIEHTYYTGLPTLFPDGRIVYEQIDLEDGRDLDEEITVWVDDVQFVLDQLQKWNESDPQNLLNGRLDMDRVGMLGHSFGGATTAQVMHQDPRIRAGVNMDGFLFGSLIEEGLDYPFMYMSGVEEVSMEGPDGKKVEEAELPEEFREFIADDKRRKEGALKNNGLYVVIENAEHESFSDWMLYSPLLLDRDLPMLDQINKTLLDFFDEHLKEGHHHHHH,soluble
13,MNVLALDTSQRIRIGLRKGEDLFEISYTGEKKHAEILPVVVKKLLDELDLKVKDLDVVGVGIGPGGLTGLRVGIATVVGLVSPYDIPVAPLNSFEMTAKSCPADGVVLVARRARKGYHYCAVYLKDKGLNPLKEPSVVSDEELEEITKEFSPKIVLKDDLLISPAVLVEESERLFREKKTIHYYEIEPLYLQKSIAELNWEKKKRG,not soluble
14,MLQQVREQVAARLRLDAGRPWLMVHAGSGGSANNLSIEQYARLIIKLNQACPELQCILTAGPGEERIAEQLAAELLAHGGNGWIYRSDEGLPKFCQVMANAALFVAGSTGPLHIAAALDVPTIGFFPAHRSATPLRWRPLNSEGRHLAFSPPEDSDHPEDMSQLDPKTMAAAIARWAPPFWRTEHLEHHHHHH,not soluble
15,MEKKAFFQQLDERTDIRYTDSGLKIFRLKFPRAHLRLCNVKIDFGSRDVCIRAESGDTLLPYGTAHFLEHLLFWHNGRNLYSDFFAHGALLNAFTTYTDTNFMFTSLPDRLRQTIPILLDALWNHSFDKKIVAQEKAVITSEIQTAHLNHQLSYHYQLISMLSPSSPAAVFPAGRIEDIEALDISDLQKAYKAAYQAHRMTLFLIGGSENTETLLPPHLQLEKRPDYHAERKIIPACPPVLSQKMMLGDEERMEDTWTGLQIGALPGQNDLLSIKLYWDIAARILFQLDSPFFQEIQQTYRLEIDRLSAETYIYEDGGFLILHSQGTHSSAYIDVASYYVTQKKEQVAAWLQYGKDSLTDAIIYDSDYVRKCFEWAAECDRCDCSFLDMYHIIQDMDAQVFLSLIDAMASSNKAIIHVSQKEAIRQ,not soluble
16,MGSDKIHHHHHHMLSLTEQLNRGPVVSDGAMATELEKRGVATNSALWSATAMLDHPDAIQAVHQSYLDAGAKIMTTNTYQANVPAFEQAGIAAVQARQLIQQAVTIAHTARDASHVTDAVIAGSIGPYGAYLADGSEYTGAYQLTPSAYQDFHRERLALIMAAGVDVLALETMPRLDEVQALVQLITTTWPQQPYWVSFSIKDPQTLCDGTSLAVAAKWVAAQPNVVAVGVNCTTLENIAPALTTLKAAVAVPLIVYPNSGDQYDPVTKTWQETHLSHQFASFVPQWLAAGARIIGGCCRTTPKDIATVARALSVSDSAKL,not soluble
17,MYILVENAVTSKQLVTGVRTEPHYRYAGYYLKAYEIVANQERDKTKYESLEPAIKALFTLDSEHEKKVRTQLENLKLLTKFKFTGIYTESVDRYNKAVVLQDKGKTEDAETATTNAQT,not soluble
18,GPGSMEPNFFNNSGLMLLCKDGSAVRAIDVLKDAEYVLMYFSAHWCPPCRTFTPMLKSFYETHHAKKKFEVVFMSSDRSEEEMMSYFRESHGDYYCLPYADARSMARVWGDTYKFKTIPTLLVFENANPRKLIARCGREMVIKDPLGNLFPWPDADAQQPAESFIFDYTRKAAIVLGISVLLYSLISRSL,not soluble
19,MGSDKIHHHHHHMLINRNIVALFALPFMASATASELSIGAGAAYNESPYRGYNENTKAIPLISYEGDTFYVRQTTLGFILSQSEKNELSLTASWMPLEFDPTDNDDYAMQQLDKRDSTAMAGVAWYHHERWGTVKASAAADVLDNSNGWVGELSVFHKMQIGRLSLTPALGVLYYDENFSDYYYGISESESRRSGLASYSAQDAWVPYVSLTAKYPIGEHVVLMASAGYSELPEEITDSPMIDRNESFTFVTGVSWRF,not soluble
20,MIELKEVVKEYRTKNKEVLAVDHVNLSIRAGSIYGVIGFSGAGKSTLIRMFNHLEAPTSGEVIIDGDHIGQLSKNGLRAKRQKVNMIFQHFNLLWSRTVLKNIMFPLEIAGVPRRRAKQKALELVELVGLKGREKAYPSELSGGQKQRVGIARALANDPTVLLCDEATSALDPQTTDEILDLLLKIREQQNLTIVLITHEMHVIRRICDEVAVMESGKVIEHGPVTQVFENPQHTVTKRFVKEDLNDDFETSLTELEPLEKDAYIVRLVFAGSTTTEPIVSSLSTAYDIKINILEANIKNTKNGTVGFLVLHIPYISSVDFGKFEKELIERQVKMEVLRHG,not soluble
